The record followed here is PMC8092406 (Proceedings of the National Academy of Sciences of the …, 2021).

This data set deals with the molecule itself. The data set is described as follows: negative-stain electron microscopy.

B1: Cp149, CTD-less HBV core protein (domain or fragment)
chain: MDIDPYKEFGATVELLSFLPSDFFPSVRDLLDTASALYREALESPEHCSPHHTALRQAILCWGELMTLATWVGVNLEDPASRDLVVSYVNTNMGLKFRQLLWFHISCLTFGRETVIEYLVSFGVWIRTPPAYRPPNAPILSTLPETTVV
Regarding B1, the binding result was “binds”.

B2: Cp183-F97L (natural protein)
chain: MDIDPYKEFGATVELLSFLPSDFFPSVRDLLDTASALYREALESPEHCSPHHTALRQAILCWGELMTLATWVGVNLEDPASRDLVVSYVNTNMGLKLRQLLWFHISCLTFGRETVIEYLVSFGVWIRTPPAYRPPNAPILSTLPETTVVRRRGRSPRRRTPSPRRRRSQSPRRRRSQSRESQC
Take B2: the binding result is on record as “binds”.
